Data: patent publication US20110020273A1 (published 2011)

Molecular target: T1, CD20 (human, UniProt P11836 1-297)
T1 sequence (looked up): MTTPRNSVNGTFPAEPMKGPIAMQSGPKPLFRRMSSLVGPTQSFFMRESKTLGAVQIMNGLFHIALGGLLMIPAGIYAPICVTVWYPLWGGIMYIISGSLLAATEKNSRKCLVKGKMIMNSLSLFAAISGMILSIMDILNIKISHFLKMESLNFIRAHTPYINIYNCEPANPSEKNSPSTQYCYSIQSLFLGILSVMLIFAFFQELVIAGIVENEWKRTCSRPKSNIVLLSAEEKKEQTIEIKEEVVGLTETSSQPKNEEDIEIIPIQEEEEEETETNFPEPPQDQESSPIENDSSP
Assay: cell-based or functional assay

EC50, in vitro proliferation of Jeko-1 cells: 1.5 nM
B1: veltuzumab (antibody, V domains shown)
VH: QVQLQQSGAEVKKPGSSVKVSCKASGYTFTSYNMHWVKQAPGQGLEWIGAIYPGMGDTSYNQKFKGKATLTADESTNTAYMELSSLRSEDTAFYYCARSTYYGGDWYFDVWGQGTTVTVSS
VL: DIQLTQSPSSLSASVGDRVTMTCRASSSVSYIHWFQQKPGKAPKPWIYATSNLASGVPVRFSGSGSGTDYTFTISSLQPEDIATYYCQQWTSNPPTFGGGTKLEIK
